Literature values in patent publication US20060104951A1, “Akt and regulation of RA synovial fibroblast apoptosis” (priority 2004, published 2006).

Test system: Akt
Details: Cell: HL-60

B1: Focal adhesion kinase: pathway kinase whose overexpression activates Akt in HL-60 (protein, UniProt Q05397 2-1052, looked up)
Focal adhesion kinase 1: AAAYLDPNLNHTPNSSTKTHLGTGMERSPGAMERVLKVFHYFESNSEPTTWASIIRHGDATDVRGIIQKIVDSHKVKHVACYGFRLSHLRSEEVHWLHVDMGVSSVREKYELAHPPEEWKYELRIRYLPKGFLNQFTEDKPTLNFFYQQVKSDYMLEIADQVDQEIALKLGCLEIRRSYWEMRGNALEKKSNYEVLEKDVGLKRFFPKSLLDSVKAKTLRKLIQQTFRQFANLNREESILKFFEILSPVYRFDKECFKCALGSSWIISVELAIGPEEGISYLTDKGCNPTHLADFTQVQTIQYSNSEDKDRKGMLQLKIAGAPEPLTVTAPSLTIAENMADLIDGYCRLVNGTSQSFIIRPQKEGERALPSIPKLANSEKQGMRTHAVSVSETDDYAEIIDEEDTYTMPSTRDYEIQRERIELGRCIGEGQFGDVHQGIYMSPENPALAVAIKTCKNCTSDSVREKFLQEALTMRQFDHPHIVKLIGVITENPVWIIMELCTLGELRSFLQVRKYSLDLASLILYAYQLSTALAYLESKRFVHRDIAARNVLVSSNDCVKLGDFGLSRYMEDSTYYKASKGKLPIKWMAPESINFRRFTSASDVWMFGVCMWEILMHGVKPFQGVKNNDVIGRIENGERLPMPPNCPPTLYSLMTKCWAYDPSRRPRFTELKAQLSTILEEEKAQQEERMRMESRRQATVSWDSGGSDEAPPKPSRPGYPSPRSSEGFYPSPQHMVQTNHYQVSGYPGSHGITAMAGSIYPGQASLLDQTDSWNHRPQEIAMWQPNVEDSTVLDLRGIGQVLPTHLMEERLIRQQQEMEEDQRWLEKEERFLKPDVRLSRGSIDREDGSLQGPIGNQHIYQPVGKPDPAAPPKKPPRPGAPGHLGSLASLSSPADSYNEGVKLQPQEISPPPTANLDRSNDKVYENVTGLVKAVIEMSSKIQPAPPEEYVPMVKEVGLALRTLLATVDETIPLLPASTHREIEMAQKLLNSDLGELINKMKLAQQYVMTSLQQEYKKQMLTAAHALAVDAKNLLDVIDQARLKMLGQTRPH
- Action: Activates Akt
